Results as given in publication PMC3673817.
pKd: −log10 of the molar value.

Biological target: FLAG-tagged full length EEA1 (Early endosomal autoantigen 1) (human) (UniProt Q15075)
Assay: SPR; EEA1-FLAG amine-coupled to a CM5 chip (~2,000 RU), Biacore 2000, 25°C; E2 injected at 2.5 to 160 μM, 20 μL/min, in 10 mM Hepes pH 7.4, 150 mM NaCl, 3 mM EDTA, 0.005% surfactant P20; response plotted against the E2 concentration

Sequence of UniProt Q15075 (Q15075 whole entry): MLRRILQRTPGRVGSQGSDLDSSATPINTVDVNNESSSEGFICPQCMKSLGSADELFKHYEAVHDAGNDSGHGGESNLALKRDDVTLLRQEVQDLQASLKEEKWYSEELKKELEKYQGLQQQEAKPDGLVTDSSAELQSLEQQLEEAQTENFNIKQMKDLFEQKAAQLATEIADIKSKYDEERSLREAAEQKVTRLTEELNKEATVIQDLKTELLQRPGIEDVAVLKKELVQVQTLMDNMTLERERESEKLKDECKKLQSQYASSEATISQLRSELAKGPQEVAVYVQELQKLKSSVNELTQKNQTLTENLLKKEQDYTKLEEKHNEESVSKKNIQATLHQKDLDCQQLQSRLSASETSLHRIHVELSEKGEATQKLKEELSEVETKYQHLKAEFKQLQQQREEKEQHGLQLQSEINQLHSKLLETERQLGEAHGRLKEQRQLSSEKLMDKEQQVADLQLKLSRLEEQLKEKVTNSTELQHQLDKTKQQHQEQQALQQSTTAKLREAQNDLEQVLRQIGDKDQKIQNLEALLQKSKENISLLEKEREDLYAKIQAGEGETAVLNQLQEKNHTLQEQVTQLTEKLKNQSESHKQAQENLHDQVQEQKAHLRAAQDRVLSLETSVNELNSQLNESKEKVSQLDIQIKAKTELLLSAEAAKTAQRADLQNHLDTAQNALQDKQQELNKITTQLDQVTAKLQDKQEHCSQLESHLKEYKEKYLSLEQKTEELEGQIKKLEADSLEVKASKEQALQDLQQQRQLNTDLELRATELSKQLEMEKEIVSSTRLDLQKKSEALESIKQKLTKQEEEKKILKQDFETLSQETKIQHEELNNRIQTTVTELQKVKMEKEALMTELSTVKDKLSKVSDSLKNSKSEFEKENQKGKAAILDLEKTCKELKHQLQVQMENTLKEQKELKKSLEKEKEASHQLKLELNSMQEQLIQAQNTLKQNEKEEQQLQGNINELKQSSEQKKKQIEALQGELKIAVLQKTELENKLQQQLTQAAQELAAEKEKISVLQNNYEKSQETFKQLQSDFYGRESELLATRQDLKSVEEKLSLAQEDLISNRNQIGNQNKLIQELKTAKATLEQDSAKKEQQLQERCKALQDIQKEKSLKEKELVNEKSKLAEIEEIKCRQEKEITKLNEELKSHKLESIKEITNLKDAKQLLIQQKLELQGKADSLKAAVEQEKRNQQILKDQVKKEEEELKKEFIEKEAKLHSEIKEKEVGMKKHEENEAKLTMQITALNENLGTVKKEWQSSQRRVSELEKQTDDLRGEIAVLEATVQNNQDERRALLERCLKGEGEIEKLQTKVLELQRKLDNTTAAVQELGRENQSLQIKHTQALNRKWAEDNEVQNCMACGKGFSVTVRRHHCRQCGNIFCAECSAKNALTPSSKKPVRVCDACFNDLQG

pKd: 5.01
Substance: Ube2A (HR6a) (from UniProt P49459 1-152) (enzyme; other documents disagree on this pair)
